Reference: US20150045540A1 (published 2015)
One block for each binder: values may come before it.

Key:
[1] = target: T1, Placenta Growth Factor (PlGF), human (human, UniProt P49763 21-149); experiment: ELISA
T1 chain: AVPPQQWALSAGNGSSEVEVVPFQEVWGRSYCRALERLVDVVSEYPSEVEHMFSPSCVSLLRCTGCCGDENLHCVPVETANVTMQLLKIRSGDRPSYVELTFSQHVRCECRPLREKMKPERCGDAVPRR

[2] = target: Hepatocyte Growth Factor (HGF), human (human, UniProt P14210 32-728); experiment: ELISA
Sequence of Hepatocyte Growth Factor (HGF), human (P14210 32-728): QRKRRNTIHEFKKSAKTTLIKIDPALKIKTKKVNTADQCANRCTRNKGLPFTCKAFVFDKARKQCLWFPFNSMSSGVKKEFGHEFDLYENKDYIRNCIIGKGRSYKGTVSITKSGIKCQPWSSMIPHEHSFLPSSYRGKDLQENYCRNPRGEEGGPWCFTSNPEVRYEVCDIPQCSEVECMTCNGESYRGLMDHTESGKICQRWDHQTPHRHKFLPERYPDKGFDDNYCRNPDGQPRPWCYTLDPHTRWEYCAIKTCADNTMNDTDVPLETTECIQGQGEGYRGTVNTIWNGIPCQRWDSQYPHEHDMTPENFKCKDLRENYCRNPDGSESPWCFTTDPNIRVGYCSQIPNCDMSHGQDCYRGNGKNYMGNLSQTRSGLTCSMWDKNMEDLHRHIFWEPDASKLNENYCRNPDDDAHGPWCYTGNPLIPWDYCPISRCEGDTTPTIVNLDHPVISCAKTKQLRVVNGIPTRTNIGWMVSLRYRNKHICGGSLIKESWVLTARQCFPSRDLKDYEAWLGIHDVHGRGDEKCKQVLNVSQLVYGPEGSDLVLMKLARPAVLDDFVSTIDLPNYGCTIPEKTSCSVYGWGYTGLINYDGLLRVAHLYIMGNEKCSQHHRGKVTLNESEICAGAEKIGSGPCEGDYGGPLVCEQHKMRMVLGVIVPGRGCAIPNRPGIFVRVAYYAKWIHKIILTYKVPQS

B1: HC 2/SLC 8 (antibody)
chain 1: GQGTLVTVSSASQPVLHQPPAMSSALGTTIRLTCTLRNDHDIGVYSVYWYQQRPGHPPRFLLRYFSQSDKSQGPQVPPRFSGSKDVARNRGYLSISELQPEDEAMYYCAMGARSRCWPRGFQSKHNSVTHVFGSGTQLTVLSQPKATPSVTLFPPSSEELQANKATLVCLMNDFYPGILTVTWKADGTPITQGVEMTTPSKQSNNKYAASSYLSLTPEQWRSRRSYSCQVMHEGSTVEKTVAPAECS
chain 2: MSWAPVLLMLFVYCTGCGPQPVLHQPPAMSSALGTTIRLTCTLRNDHDIGVYSVYWYQQRPGHPPRFLLRYFSQSDKSQGPQVPPRFSGSKDVARNRGYLSISVTHVFGSGTQLTVLSQPKATPSQVQLVQ
EC50 [1]: 0.119 nM
EC50 [2]: 0.046 nM

B2: HC 6/SLC 8 (antibody)
chain 1: GQGTLVTVSSASTKGPQPVLHQPPAMSSALGTTIRLTCTLRNDHDIGVYSVYWYQQRPGHPPRFLLRYFSQSDKSQGPQVPPRFSGSKDVARNRGYLSISELQPEDEAMYYCAMGARSRCWPRGFQSKHNSVTHVFGSGTQLTVLSQPKATPSVTLFPPSSEELQANKATLVCLMNDFYPGILTVTWKADGTPITQGVEMTTPSKQSNNKYAASSYLSLTPEQWRSRRSYSCQVMHEGSTVEKTVAPAECS
chain 2: MSWAPVLLMLFVYCTGCGPQPVLHQPPAMSSALGTTIRLTCTLRNDHDIGVYSVYWYQQRPGHPPRFLLRYFSQSDKSQGPQVPPRFSGSKDVARNRGYLSISVTHVFGSGTQLTVLSQPKATPSQVQLVQ
EC50 [1]: 0.073 nM
EC50 [2]: 0.059 nM

B3: HC 10/SLC 8 (antibody)
chain 1: GQGTLVTVSSASTKGPSVFPQPVLHQPPAMSSALGTTIRLTCTLRNDHDIGVYSVYWYQQRPGHPPRFLLRYFSQSDKSQGPQVPPRFSGSKDVARNRGYLSISELQPEDEAMYYCAMGARSRCWPRGFQSKHNSVTHVFGSGTQLTVLSQPKATPSVTLFPPSSEELQANKATLVCLMNDFYPGILTVTWKADGTPITQGVEMTTPSKQSNNKYAASSYLSLTPEQWRSRRSYSCQVMHEGSTVEKTVAPAECS
chain 2: MSWAPVLLMLFVYCTGCGPQPVLHQPPAMSSALGTTIRLTCTLRNDHDIGVYSVYWYQQRPGHPPRFLLRYFSQSDKSQGPQVPPRFSGSKDVARNRGYLSISVTHVFGSGTQLTVLSQPKATPSQVQLVQ
EC50 [1]: 0.046 nM
EC50 [2]: 0.048 nM

B5: HC 5/SLC 7 (antibody)
chain 1: GQGTLVTVSSASTKGQPVLHQPPAMSSALGTTIRLTCTLRNDHDIGVYSVYWYQQRPGHPPRFLLRYFSQSDKSQGPQVPPRFSGSKDVARNRGYLSISELQPEDEAMYYCAMGARSRCWPRGFQSKHNSVTHVFGSGTQLTVLSQPKATPSVTLFPPSSEELQANKATLVCLMNDFYPGILTVTWKADGTPITQGVEMTTPSKQSNNKYAASSYLSLTPEQWRSRRSYSCQVMHEGSTVEKTVAPAECS
chain 2: MSWAPVLLMLFVYCTGCGPQPVLHQPPAMSSALGTTIRLTCTLRNDHDIGVYSVYWYQQRPGHPPRFLLRYFSQSDKSQGPQVPPRFSGSKDVARNRGYLSISVTHVFGSGTQLTVLSQPKATPQVQLVQ
EC50 [1]: 0.129 nM
EC50 [2]: 0.056 nM

B8: HC 9/SLC 9 (antibody)
chain 1: GQGTLVTVSSASTKGPSVFQPVLHQPPAMSSALGTTIRLTCTLRNDHDIGVYSVYWYQQRPGHPPRFLLRYFSQSDKSQGPQVPPRFSGSKDVARNRGYLSISELQPEDEAMYYCAMGARSRCWPRGFQSKHNSVTHVFGSGTQLTVLSQPKATPSVTLFPPSSEELQANKATLVCLMNDFYPGILTVTWKADGTPITQGVEMTTPSKQSNNKYAASSYLSLTPEQWRSRRSYSCQVMHEGSTVEKTVAPAECS
chain 2: MSWAPVLLMLFVYCTGCGPQPVLHQPPAMSSALGTTIRLTCTLRNDHDIGVYSVYWYQQRPGHPPRFLLRYFSQSDKSQGPQVPPRFSGSKDVARNRGYLSISVTHVFGSGTQLTVLSQPKATPSVQVQLVQ
EC50 [1]: 0.046 nM
EC50 [2]: 0.058 nM

B12: HC 5/SLC 15 (antibody)
chain 1: GQGTLVTVSSASTKGQPVLHQPPAMSSALGTTIRLTCTLRNDHDIGVYSVYWYQQRPGHPPRFLLRYFSQSDKSQGPQVPPRFSGSKDVARNRGYLSISELQPEDEAMYYCAMGARSRCWPRGFQSKHNSVTHVFGSGTQLTVLSQPKATPSVTLFPPSSEELQANKATLVCLMNDFYPGILTVTWKADGTPITQGVEMTTPSKQSNNKYAASSYLSLTPEQWRSRRSYSCQVMHEGSTVEKTVAPAECS
chain 2: MSWAPVLLMLFVYCTGCGPQPVLHQPPAMSSALGTTIRLTCTLRNDHDIGVYSVYWYQQRPGHPPRFLLRYFSQSDKSQGPQVPPRFSGSKDVARNRGYLSISVTHVFGSGTQLTVLSQPKATPSVTGGGGSQVQLVQ
EC50 [1]: 0.049 nM
EC50 [2]: ~0.041 nM

Further binders by falling EC50 [1], results first:

EC50 [1]: 0.283 nM
EC50 [2]: 0.056 nM
B9: HC 7/SLC 5 (antibody)
chain 1: GQGTLVTVSSASTKGPSQPVLHQPPAMSSALGTTIRLTCTLRNDHDIGVYSVYWYQQRPGHPPRFLLRYFSQSDKSQGPQVPPRFSGSKDVARNRGYLSISELQPEDEAMYYCAMGARSRCWPRGFQSKHNSVTHVFGSGTQLTVLSQPKATPSVTLFPPSSEELQANKATLVCLMNDFYPGILTVTWKADGTPITQGVEMTTPSKQSNNKYAASSYLSLTPEQWRSRRSYSCQVMHEGSTVEKTVAPAECS
chain 2: MSWAPVLLMLFVYCTGCGPQPVLHQPPAMSSALGTTIRLTCTLRNDHDIGVYSVYWYQQRPGHPPRFLLRYFSQSDKSQGPQVPPRFSGSKDVARNRGYLSISVTHVFGSGTQLTVLSQPKAQVQLVQ

EC50 [1]: 0.204 nM
EC50 [2]: 0.065 nM
B10: HC 7/SLC 4 (antibody)
chain 1: GQGTLVTVSSASTKGPSQPVLHQPPAMSSALGTTIRLTCTLRNDHDIGVYSVYWYQQRPGHPPRFLLRYFSQSDKSQGPQVPPRFSGSKDVARNRGYLSISELQPEDEAMYYCAMGARSRCWPRGFQSKHNSVTHVFGSGTQLTVLSQPKATPSVTLFPPSSEELQANKATLVCLMNDFYPGILTVTWKADGTPITQGVEMTTPSKQSNNKYAASSYLSLTPEQWRSRRSYSCQVMHEGSTVEKTVAPAECS
chain 2: MSWAPVLLMLFVYCTGCGPQPVLHQPPAMSSALGTTIRLTCTLRNDHDIGVYSVYWYQQRPGHPPRFLLRYFSQSDKSQGPQVPPRFSGSKDVARNRGYLSISVTHVFGSGTQLTVLSQPKQVQLVQ

EC50 [1]: 0.197 nM
EC50 [2]: 0.051 nM
B13: HC 5/SLC 2 (antibody)
chain 1: GQGTLVTVSSASTKGQPVLHQPPAMSSALGTTIRLTCTLRNDHDIGVYSVYWYQQRPGHPPRFLLRYFSQSDKSQGPQVPPRFSGSKDVARNRGYLSISELQPEDEAMYYCAMGARSRCWPRGFQSKHNSVTHVFGSGTQLTVLSQPKATPSVTLFPPSSEELQANKATLVCLMNDFYPGILTVTWKADGTPITQGVEMTTPSKQSNNKYAASSYLSLTPEQWRSRRSYSCQVMHEGSTVEKTVAPAECS
chain 2: MSWAPVLLMLFVYCTGCGPQPVLHQPPAMSSALGTTIRLTCTLRNDHDIGVYSVYWYQQRPGHPPRFLLRYFSQSDKSQGPQVPPRFSGSKDVARNRGYLSISVTHVFGSGTQLTVLSQQVQLVQ

EC50 [1]: 0.195 nM
EC50 [2]: 0.063 nM
B11: HC 2/SLC 9 (antibody)
chain 1: GQGTLVTVSSASQPVLHQPPAMSSALGTTIRLTCTLRNDHDIGVYSVYWYQQRPGHPPRFLLRYFSQSDKSQGPQVPPRFSGSKDVARNRGYLSISELQPEDEAMYYCAMGARSRCWPRGFQSKHNSVTHVFGSGTQLTVLSQPKATPSVTLFPPSSEELQANKATLVCLMNDFYPGILTVTWKADGTPITQGVEMTTPSKQSNNKYAASSYLSLTPEQWRSRRSYSCQVMHEGSTVEKTVAPAECS
chain 2: MSWAPVLLMLFVYCTGCGPQPVLHQPPAMSSALGTTIRLTCTLRNDHDIGVYSVYWYQQRPGHPPRFLLRYFSQSDKSQGPQVPPRFSGSKDVARNRGYLSISVTHVFGSGTQLTVLSQPKATPSVQVQLVQ

EC50 [1]: 0.161 nM
EC50 [2]: 0.059 nM
B4: HC 4/SLC 7 (antibody)
chain 1: GQGTLVTVSSASTKQPVLHQPPAMSSALGTTIRLTCTLRNDHDIGVYSVYWYQQRPGHPPRFLLRYFSQSDKSQGPQVPPRFSGSKDVARNRGYLSISELQPEDEAMYYCAMGARSRCWPRGFQSKHNSVTHVFGSGTQLTVLSQPKATPSVTLFPPSSEELQANKATLVCLMNDFYPGILTVTWKADGTPITQGVEMTTPSKQSNNKYAASSYLSLTPEQWRSRRSYSCQVMHEGSTVEKTVAPAECS
chain 2: MSWAPVLLMLFVYCTGCGPQPVLHQPPAMSSALGTTIRLTCTLRNDHDIGVYSVYWYQQRPGHPPRFLLRYFSQSDKSQGPQVPPRFSGSKDVARNRGYLSISVTHVFGSGTQLTVLSQPKATPQVQLVQ

EC50 [1]: 0.159 nM
EC50 [2]: 0.054 nM
B6: HC 3/SLC 7 (antibody)
chain 1: GQGTLVTVSSASTQPVLHQPPAMSSALGTTIRLTCTLRNDHDIGVYSVYWYQQRPGHPPRFLLRYFSQSDKSQGPQVPPRFSGSKDVARNRGYLSISELQPEDEAMYYCAMGARSRCWPRGFQSKHNSVTHVFGSGTQLTVLSQPKATPSVTLFPPSSEELQANKATLVCLMNDFYPGILTVTWKADGTPITQGVEMTTPSKQSNNKYAASSYLSLTPEQWRSRRSYSCQVMHEGSTVEKTVAPAECS
chain 2: MSWAPVLLMLFVYCTGCGPQPVLHQPPAMSSALGTTIRLTCTLRNDHDIGVYSVYWYQQRPGHPPRFLLRYFSQSDKSQGPQVPPRFSGSKDVARNRGYLSISVTHVFGSGTQLTVLSQPKATPQVQLVQ

EC50 [1]: 0.057 nM
EC50 [2]: 0.048 nM
B7: HC 7/SLC 9 (antibody)
chain 1: GQGTLVTVSSASTKGPSQPVLHQPPAMSSALGTTIRLTCTLRNDHDIGVYSVYWYQQRPGHPPRFLLRYFSQSDKSQGPQVPPRFSGSKDVARNRGYLSISELQPEDEAMYYCAMGARSRCWPRGFQSKHNSVTHVFGSGTQLTVLSQPKATPSVTLFPPSSEELQANKATLVCLMNDFYPGILTVTWKADGTPITQGVEMTTPSKQSNNKYAASSYLSLTPEQWRSRRSYSCQVMHEGSTVEKTVAPAECS
chain 2: MSWAPVLLMLFVYCTGCGPQPVLHQPPAMSSALGTTIRLTCTLRNDHDIGVYSVYWYQQRPGHPPRFLLRYFSQSDKSQGPQVPPRFSGSKDVARNRGYLSISVTHVFGSGTQLTVLSQPKATPSVQVQLVQ
